According to PMC13147315:

What was measured:
[1] = target: N_CTD (SARS-CoV-2 (Wuhan), UniProt P0DTC9 247-364); experiment: MST; details: protein: recombinant, tags: 6xHis, chain copies: 2
[2] = target: T1, N_WT (nucleocapsid, Wuhan) (SARS-CoV-2 (Wuhan), UniProt P0DTC9 1-419); experiment: MST; details: protein: recombinant, tags: 6xHis, chain copies: 2
[3] = target: T1, N_WT (nucleocapsid, Wuhan); experiment: EMSA; 15-500 nM N; details: protein: recombinant; tags: 6xHis; chain copies: 2; label: Cy5 on RNA2; 3' overhang 11 nt on strand 1
[4] = target: T1, N_WT (nucleocapsid, Wuhan); experiment: EMSA; full binding at about 500 nM N; details: protein: recombinant; tags: 6xHis; chain copies: 2
[5] = label: Cy5 (Methods EMSA: Cy3), blunt

B1: ssRNA3 (ssRNA)
RNA: AACCAUAACAUGACCAUGAGGUGCAG
Work on B1 yielded a Kd ([1]; label: Cy5 (Methods EMSA: Cy3)) of 4.29 ± 0.427 µM and a Kd ([2]; label: Cy5 (Methods EMSA: Cy3)) of 1.26 ± 0.722 µM.

B2: dsRNA3 (dsRNA)
RNA 1: AACCAUAACAUGACCAUGAGGUGCAG
RNA 2: CUGCACCUCAUGGUCAUGUUAUGGUU
B2 was tested, and the Kd [1, 5] was 2.55 ± 0.567 µM and the Kd [2, 5] was 0.647 ± 0.151 µM.

B3: ssRNA22 (ssRNA)
RNA: CAUAAUAAGAGGCUGGAUUUUUGGUA
With B3 the Kd ([1]; label: Cy5) was 2.73 ± 0.588 µM and the Kd ([2]; label: Cy5) was 0.291 ± 0.121 µM.

B4: dsRNA22 (dsRNA)
RNA 1: CAUAAUAAGAGGCUGGAUUUUUGGUA
RNA 2: UACCAAAAAUCCAGCCUCUUAUUAUG
B4 gave a Kd ([1]; label: Cy5, blunt) of 1.84 ± 0.252 µM and a Kd ([2]; label: Cy5, blunt) of 0.344 ± 0.132 µM.

B5: hybridized RNA2 (RNA2-Cy5/RNA7) (dsRNA)
RNA 1: CUGCACCUCAUGGUCAUGUUAUGGUU
RNA 2: GACCAUGAGGUGCAG
B5: binds [3].

B6: DNA of Fig. S2F (mixed)
DNA 1: TTTCGGCCTCATCAGGTCATCGCTTTAGTGAGGGTTAATAAA
DNA 2: TTATTAACCCTCACTAAA
B6: binds [4].

B7: ssRNA20 (ssRNA)
RNA: UUCGUCCGGGUGUGACCGAAAGGUAA
B7 showed a Kd ([1]; label: Cy5) of 8.54 ± 4.51 µM and a Kd ([2]; label: Cy5) of 0.425 ± 0.186 µM.

B8: dsRNA20 (dsRNA)
RNA 1: UUCGUCCGGGUGUGACCGAAAGGUAA
RNA 2: UUACCUUUCGGUCACACCCGGACGAA
Binder B8 has a Kd ([1]; label: Cy5, blunt) of 3.3 ± 0.394 µM and a Kd ([2]; label: Cy5, blunt) of 0.398 ± 0.157 µM.
